Laboratory results as given in patent publication US8173604 (ALBERT EINSTEIN COLLEGE OF MEDICINE OF YESHIVA UNIVERSITY, dated 2012).
Residue numbers refer to the chain shown, from its start.

Legend:
[1] = molecular target: T1, insect cell-produced and purified GST-cyclin A/Cdk2 (kinase reactions, ~3 nM) (UniProt P20248 1-432; P24941 1-298); assay: kinase inhibition: purified proteins, ~3 nM GST-cyclin A/Cdk2, Rb-C phosphorylation, non-linear least squares (FIG. 7F)
[2] = molecular target: T1, insect cell-produced and purified …; assay: cell-based or functional assay
[3] = molecular target: Cdk2 alone (singly transfected 293T cell extract) (UniProt P24941 1-298); assay: GST pull-down with singly transfected 293T extracts (FIG. 4A)
[4] = molecular target: cyclin D1/Cdk4 (transfected 293T cell extracts) (UniProt P24385 1-295; P11802 1-303); assay: GST pull-down with transfected 293T extracts (FIG. 4E)
[5] = molecular target: T2, cyclin A 309-432 fragment (C-terminal cyclin-fold and the C-terminus) (UniProt P20248 309-432); assay: GST pull-down with transfected 293T extracts (FIG. 4C)
T2 construct: In transfected 293T cell extract; not shown: myc tag

[6] = molecular target: myc-cyclin A/Cdk2 (293T cell extracts transfected with myc-cyclin A and Cdk2) (UniProt P20248 1-432; P24941 1-298); assay: GST pull-down with myc-cyclin A/Cdk2 transfected 293T extracts (FIG. 3C)
[7] = molecular target: T3, myc tagged cyclin A (expressed alone or cotransfected in 293T cells) (UniProt P20248 1-432); assay: cotransfection, IP-Western in 293T cells (FIG. 1A)
T3 construct: domain: full-length; also called myc-cyclin A; cyclin A alone; not shown: myc tag

[8] = molecular target: cellular cyclin A (endogenous, U2OS cells; associated with Cdk2) (human, UniProt P20248 1-432); assay: cell-based or functional assay
[9] = molecular target: T4, Skp1, Cul-1 and myc-Roc1 (SCF subunits co-expressed with flag-Skp2 in 293T cells) (UniProt P63208 1-163; Q13616 1-776; P62877 1-108); assay: co-expression in 293T cells, anti-flag IP-Western (FIG. 2A)
T4 construct: The three other subunits of the SCF complex, co-immunoprecipitated via the flag tag on Skp2; also called Skp1-Cul1-Roc1; SCF^Skp2Roc1 complex subunits; not shown: myc tag

[10] = molecular target: T3, myc tagged cyclin A (expressed alone or …); assay: IP-Western with transfected 293T cell extracts (FIG. 1E)

T4 sequence (P63208 whole entry, chain 1 of 3): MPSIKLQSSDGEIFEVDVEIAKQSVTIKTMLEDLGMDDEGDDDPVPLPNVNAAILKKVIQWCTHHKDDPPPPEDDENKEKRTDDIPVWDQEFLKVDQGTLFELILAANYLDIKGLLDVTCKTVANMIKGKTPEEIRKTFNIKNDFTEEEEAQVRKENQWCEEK
T4 sequence (Q13616 whole entry, chain 2 of 3): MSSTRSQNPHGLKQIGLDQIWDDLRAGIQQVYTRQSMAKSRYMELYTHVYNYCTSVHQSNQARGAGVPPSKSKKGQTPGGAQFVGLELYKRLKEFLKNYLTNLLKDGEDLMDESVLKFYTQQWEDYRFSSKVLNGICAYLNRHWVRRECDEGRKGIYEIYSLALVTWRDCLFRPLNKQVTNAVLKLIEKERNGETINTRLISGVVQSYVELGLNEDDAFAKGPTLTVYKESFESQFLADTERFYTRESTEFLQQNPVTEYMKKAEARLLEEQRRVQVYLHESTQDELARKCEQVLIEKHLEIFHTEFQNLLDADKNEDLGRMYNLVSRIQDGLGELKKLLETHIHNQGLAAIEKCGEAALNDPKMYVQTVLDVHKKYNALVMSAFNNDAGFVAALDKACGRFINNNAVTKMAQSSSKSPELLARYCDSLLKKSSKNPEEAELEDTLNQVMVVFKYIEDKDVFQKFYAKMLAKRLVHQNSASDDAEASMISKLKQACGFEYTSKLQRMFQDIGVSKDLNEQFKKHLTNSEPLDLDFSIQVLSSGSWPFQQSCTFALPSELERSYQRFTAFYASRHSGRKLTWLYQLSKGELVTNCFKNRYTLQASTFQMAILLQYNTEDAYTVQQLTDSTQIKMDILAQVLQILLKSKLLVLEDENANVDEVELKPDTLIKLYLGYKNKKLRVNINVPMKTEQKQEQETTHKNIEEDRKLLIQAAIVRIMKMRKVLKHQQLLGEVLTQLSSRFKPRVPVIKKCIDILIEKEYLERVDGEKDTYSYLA
T4 sequence (P62877 whole entry, chain 3 of 3): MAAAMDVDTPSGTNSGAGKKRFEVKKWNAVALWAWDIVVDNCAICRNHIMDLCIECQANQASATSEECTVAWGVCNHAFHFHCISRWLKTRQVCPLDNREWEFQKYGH
Chain of cyclin D1/Cdk4 (transfected 293T cell extracts) (P24385 whole entry, chain 1 of 2, the tested form may be a part): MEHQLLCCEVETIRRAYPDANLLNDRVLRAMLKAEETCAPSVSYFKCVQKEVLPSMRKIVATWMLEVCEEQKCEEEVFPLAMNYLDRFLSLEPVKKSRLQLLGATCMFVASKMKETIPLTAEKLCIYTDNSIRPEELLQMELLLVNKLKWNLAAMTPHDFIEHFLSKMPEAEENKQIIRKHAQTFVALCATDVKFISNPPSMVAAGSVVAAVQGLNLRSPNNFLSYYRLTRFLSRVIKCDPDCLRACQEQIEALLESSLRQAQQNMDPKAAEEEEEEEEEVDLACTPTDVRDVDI
Chain of cyclin D1/Cdk4 (transfected 293T cell extracts) (P11802 whole entry, chain 2 of 2, the tested form may be a part): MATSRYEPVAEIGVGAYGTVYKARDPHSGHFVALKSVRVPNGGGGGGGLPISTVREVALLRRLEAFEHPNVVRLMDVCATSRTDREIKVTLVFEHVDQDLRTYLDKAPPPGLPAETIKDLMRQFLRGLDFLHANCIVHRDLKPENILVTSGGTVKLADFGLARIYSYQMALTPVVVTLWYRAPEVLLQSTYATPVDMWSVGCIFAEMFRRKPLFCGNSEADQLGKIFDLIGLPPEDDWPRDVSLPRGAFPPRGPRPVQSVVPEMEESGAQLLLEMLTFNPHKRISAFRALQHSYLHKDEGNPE

B1: Skp2N (eluted, GST cleaved off by thrombin) (other)
chain: MHVFKTPGPADAMHRKHLQEIPDLSSNVATSFTWGWDSSKTSELLSGMGVSALEKEEPDSENIPQELLSNLGHPESPPRKRLKSKGSDKDFVIVRRPKLN
notes: also called eluted and GST cleaved Skp2N; Skp2 N-terminus
In the case of B1, the Ki [1] is reported as ~0.52 µM and the “Ki of p27 for cyclin A/Cdk2 kinase activity (Rb-C phosphorylation) in the presence of 80 nM of Skp2N” value [2] is reported as ~0.08 µM.

B2: GST-Skp2N (Skp2 N-terminus cloned into pGEX-2T) (other)
chain: B1 chain
notes: not shown: glutathione S-transferase (GST) moiety of vector pGEX-2T, N-terminal fusion partner
B2: no binding [3]; no binding [4]; no binding [5].

B3: GST-Skp2N-AA45 (other)
chain: B1 chain with L44A, L45A
notes: as for B2
B3: no binding [6].

B4: GST-Skp2N-AAA53 (other)
chain: B1 chain with S51A, L53A
notes: Residue 52 is already alanine; not shown: glutathione S-transferase (GST) moiety of vector pGEX-2T, N-terminal fusion partner
B4: no binding [6].

B5: Skp2LRR (C-terminal fragment of Skp2 divided at residue 150) (other)
chain: TLDLTGKNLHPDVTGRLLSQGVIAFRCPRSFMDQPLAEHFSPFRVQDMDLSNSVIEVSTLHGILSQCSKLQNLSLELRLSDPIVNTLAKNSNLVRLNLPGCPGFPKFPLQTFLSSCPRLDELNLSWCFNFTEKHVQVAVAHVSETMTQLNLSGYRKNLQKSDLSTLVRRCPNLVHLDLSNSVMLKNDCFQEFSQLNYLQHLSLSRCYDIIPETLLELGEIPTLKTLQVFGIVPDGTLQLLKEALPHLQINCSHFTTIARPTIGNKKNQEIWGIKCRLTLQKPSCL
notes: also called LRR fragment
B5: no binding [7].

For YGRKKRRQRRRGPVKRRLDL [TAT-LDL peptide (TAT fused to the E2F1-derived LDL peptide)], the “in vitro cyclin A/Cdk2 kinase activity towards GST-Rb-C” value [2] was 10 fold and the “IC50 of U2OS cell killing (MTS assay, 24 hours)” value [8] was 7.5 µM.

B6: Skp2AAAA (full-length Skp2 with the four conserved residues of the 40-60 sequence mutated to alanine, flag tagged) (other)
chain: MHVFKTPGPADAMHRKHLQEIPDLSSNVATSFTWGWDSSKTSEAASGMGVAAAEKEEPDSENIPQELLSNLGHPESPPRKRLKSKGSDKDFVIVRRPKLNRENFPGVSWDSLPDELLLGIFSCLCLPELLKVSGVCKRWYRLASDESLWQTLDLTGKNLHPDVTGRLLSQGVIAFRCPRSFMDQPLAEHFSPFRVQDMDLSNSVIEVSTLHGILSQCSKLQNLSLELRLSDPIVNTLAKNSNLVRLNLPGCPGFPKFPLQTFLSSCPRLDELNLSWCFNFTEKHVQVAVAHVSETMTQLNLSGYRKNLQKSDLSTLVRRCPNLVHLDLSNSVMLKNDCFQEFSQLNYLQHLSLSRCYDIIPETLLELGEIPTLKTLQVFGIVPDGTLQLLKEALPHLQINCSHFTTIARPTIGNKKNQEIWGIKCRLTLQKPSCL
notes: also called Skp2AAAA mutant; flag tagged Skp2AAAA; not shown: flag tag
B6: binds [9]; no binding [10].

With YGRKKRRQRRRGKTSELLSGMGVSALEKEE [TAT-4060 peptide (HIV TAT domain fused to the 4060 peptide with a glycine linker)] the “IC50 of U2OS cell killing (MTS assay, 24 hours)” value [8] was 35 µM.

B7: Skp2NF (N-terminal fragment of Skp2 divided at residue 150) (other)
chain: MHVFKTPGPADAMHRKHLQEIPDLSSNVATSFTWGWDSSKTSELLSGMGVSALEKEEPDSENIPQELLSNLGHPESPPRKRLKSKGSDKDFVIVRRPKLNRENFPGVSWDSLPDELLLGIFSCLCLPELLKVSGVCKRWYRLASDESLWQ
notes: also called NF fragment
B7: binds [7].
